Experimental data published in US20180185504A1 (Regeneron, published 2018).
Like-named read-outs stand apart in the source and are kept apart here.

Assays:
[1] = target: T1, human prolactin receptor (PRLR) on cells (human, UniProt P16471 25-622); assay: cell-based or functional assay
T1 sequence: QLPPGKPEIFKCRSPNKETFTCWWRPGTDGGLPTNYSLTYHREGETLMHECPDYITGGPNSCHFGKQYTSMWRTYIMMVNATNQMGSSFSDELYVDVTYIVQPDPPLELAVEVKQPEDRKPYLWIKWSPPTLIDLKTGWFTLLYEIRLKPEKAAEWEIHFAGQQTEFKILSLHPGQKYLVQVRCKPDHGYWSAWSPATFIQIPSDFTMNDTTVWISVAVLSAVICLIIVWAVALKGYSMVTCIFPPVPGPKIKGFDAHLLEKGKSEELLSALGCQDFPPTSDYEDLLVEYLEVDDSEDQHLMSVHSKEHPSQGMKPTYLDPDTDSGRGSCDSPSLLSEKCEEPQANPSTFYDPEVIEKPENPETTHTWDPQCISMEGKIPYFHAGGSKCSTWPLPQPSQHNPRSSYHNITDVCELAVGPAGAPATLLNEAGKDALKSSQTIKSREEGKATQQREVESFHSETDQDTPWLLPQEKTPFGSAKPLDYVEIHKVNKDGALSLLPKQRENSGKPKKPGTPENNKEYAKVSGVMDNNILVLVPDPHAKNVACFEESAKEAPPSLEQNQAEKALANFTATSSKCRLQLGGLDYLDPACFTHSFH

[2] = target: T2, mouse PRLR with an HA tag on HEK293 cells (mouse, UniProt Q08501 20-608); assay: FACS on HEK293/mPRLR cells
T2 construct: whole, on cells; also called HEK293/mPRLR; rodent PRLR; not shown: HA tag
T2 sequence (looked up): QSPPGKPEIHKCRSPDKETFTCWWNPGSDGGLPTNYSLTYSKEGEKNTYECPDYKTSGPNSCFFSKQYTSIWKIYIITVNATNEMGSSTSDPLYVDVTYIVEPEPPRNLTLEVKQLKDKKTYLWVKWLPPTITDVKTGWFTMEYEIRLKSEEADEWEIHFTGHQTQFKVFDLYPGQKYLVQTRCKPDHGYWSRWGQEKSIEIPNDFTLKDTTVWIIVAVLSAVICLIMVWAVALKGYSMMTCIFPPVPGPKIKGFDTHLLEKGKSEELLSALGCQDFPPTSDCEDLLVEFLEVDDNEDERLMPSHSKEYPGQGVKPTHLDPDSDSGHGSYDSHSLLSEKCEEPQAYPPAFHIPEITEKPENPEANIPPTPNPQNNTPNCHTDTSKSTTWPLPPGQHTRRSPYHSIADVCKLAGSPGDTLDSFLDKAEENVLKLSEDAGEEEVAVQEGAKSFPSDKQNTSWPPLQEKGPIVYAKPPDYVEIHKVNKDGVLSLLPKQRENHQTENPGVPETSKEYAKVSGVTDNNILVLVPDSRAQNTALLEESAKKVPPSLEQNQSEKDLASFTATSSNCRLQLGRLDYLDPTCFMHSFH

[3] = target: T3, human prolactin receptor (PRLR) (human, UniProt P16471 25-622); assay: cell-based or functional assay
T3 sequence: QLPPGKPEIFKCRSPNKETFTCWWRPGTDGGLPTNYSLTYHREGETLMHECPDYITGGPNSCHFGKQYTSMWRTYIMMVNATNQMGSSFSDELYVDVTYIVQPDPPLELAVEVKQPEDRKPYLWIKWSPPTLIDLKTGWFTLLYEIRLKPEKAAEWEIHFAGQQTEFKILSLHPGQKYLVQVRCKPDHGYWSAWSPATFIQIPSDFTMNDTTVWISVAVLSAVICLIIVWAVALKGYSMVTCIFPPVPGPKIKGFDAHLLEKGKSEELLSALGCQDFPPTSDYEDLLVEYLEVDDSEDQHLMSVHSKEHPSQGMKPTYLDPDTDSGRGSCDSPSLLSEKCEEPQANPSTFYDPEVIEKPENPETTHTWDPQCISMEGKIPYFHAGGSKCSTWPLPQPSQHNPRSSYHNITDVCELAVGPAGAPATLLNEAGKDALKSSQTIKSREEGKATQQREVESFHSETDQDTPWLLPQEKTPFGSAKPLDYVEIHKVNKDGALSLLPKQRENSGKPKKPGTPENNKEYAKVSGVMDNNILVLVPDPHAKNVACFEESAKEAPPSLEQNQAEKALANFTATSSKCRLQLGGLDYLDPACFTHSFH

[4] = target: T3, human prolactin receptor (PRLR); assay: cell-based or functional assay; remark: listed apart in the source
[5] = target: T3, human prolactin receptor (PRLR); assay: cell-based or functional assay; remark: listed apart in the source
[6] = target: T3, human prolactin receptor (PRLR); assay: cell-based or functional assay; remark: listed apart in the source
[7] = target: T3, human prolactin receptor (PRLR); assay: cell-based or functional assay; remark: listed apart in the source
[8] = target: T3, human prolactin receptor (PRLR); assay: cell-based or functional assay; remark: listed apart in the source
[9] = target: T3, human prolactin receptor (PRLR); assay: cell-based or functional assay; remark: listed apart in the source
[10] = target: T3, human prolactin receptor (PRLR); assay: cell-based or functional assay; remark: listed apart in the source
[11] = target: T3, human prolactin receptor (PRLR); assay: cell-based or functional assay; remark: listed apart in the source
[12] = target: T4, hPRLR-mmH (recombinant extracellular domain of hPRLR with a C-terminal myc-myc-hexahistidine tag) (human); assay: H/D exchange MS; hPRLR-mmH bound to H1H6958N2 on NHS agarose beads
T4 construct: the entry includes the myc-myc-His6 tag; also called truncated form of PRLR
T4 chain: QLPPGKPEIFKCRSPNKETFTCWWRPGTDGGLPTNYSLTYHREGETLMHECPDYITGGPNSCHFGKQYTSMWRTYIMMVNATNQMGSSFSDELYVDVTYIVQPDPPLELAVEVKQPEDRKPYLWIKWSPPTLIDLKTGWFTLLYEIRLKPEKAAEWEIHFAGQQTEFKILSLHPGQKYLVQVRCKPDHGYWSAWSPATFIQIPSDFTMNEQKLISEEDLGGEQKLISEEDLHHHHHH

[13] = target: T5, dimeric form of human PRLR (Example 12 ELISA) (human); assay: blocking ELISA: 10 nM dimeric human PRLR premixed with mAb (520 pM to 30 nM), plate-coated human PRL
T5 construct: PRLR'
T5 sequence (P16471 whole entry, looked up): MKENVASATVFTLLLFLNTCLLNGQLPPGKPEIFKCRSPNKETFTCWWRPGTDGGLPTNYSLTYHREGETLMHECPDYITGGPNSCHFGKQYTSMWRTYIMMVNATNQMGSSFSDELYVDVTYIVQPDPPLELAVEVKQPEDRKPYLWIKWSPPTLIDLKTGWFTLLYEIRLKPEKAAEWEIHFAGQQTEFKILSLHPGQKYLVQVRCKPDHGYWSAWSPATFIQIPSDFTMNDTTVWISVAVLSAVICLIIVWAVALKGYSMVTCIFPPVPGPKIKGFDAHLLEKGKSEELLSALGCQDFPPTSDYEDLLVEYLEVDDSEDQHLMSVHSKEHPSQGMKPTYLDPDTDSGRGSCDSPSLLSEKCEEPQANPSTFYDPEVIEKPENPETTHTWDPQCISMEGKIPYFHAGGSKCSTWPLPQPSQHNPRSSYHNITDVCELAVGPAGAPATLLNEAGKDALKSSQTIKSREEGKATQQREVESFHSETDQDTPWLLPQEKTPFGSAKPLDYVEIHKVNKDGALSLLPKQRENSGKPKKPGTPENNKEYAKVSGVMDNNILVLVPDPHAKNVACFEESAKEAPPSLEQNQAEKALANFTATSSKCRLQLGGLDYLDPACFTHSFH
Protocol: (§1) Dimeric forms of human or cynomolgus monkey (Macaca fascicularis) PRLR and monomeric human PRL were used in this assay. […] After 1-hour incubation, captured PRLR was detected with HRP-conjugated goat anti-Fcγ antibody and visualized with TMB colorimetric substrate by measuring absorbance at 450 nm. […] Mixtures were then added to plates coated with in 1 μg/mL PRL and captured PRLR was detected as described above. Data were analyzed using a four-parameter logistic equation over an 11-point response curve in GraphPad Prism software and IC₅₀ values were calculated.

[14] = target: T6, dimeric form of cynomolgus monkey (Macaca fascicularis) PRLR (Example 12 ELISA) (cynomolgus monkey (Macaca fascicularis)); assay: blocking ELISA: 10 nM dimeric monkey PRLR premixed with mAb (520 pM to 30 nM), plate-coated human PRL
T6 construct: also called monkey PRLR
Protocol: as §1

[15] = target: T5, dimeric form of human PRLR (Example 12 …); assay: blocking ELISA: 10 nM dimeric human PRLR premixed with ADC (520 pM to 30 nM), plate-coated human PRL
Protocol: as §1

[16] = target: T6, dimeric form of cynomolgus monkey …; assay: blocking ELISA: 10 nM dimeric monkey PRLR premixed with ADC (520 pM to 30 nM), plate-coated human PRL
Protocol: as §1

B1: H1H6762P (antibody, human IgG1, V domains shown)
VH: QVQLVESGGGVVQPGRSLRLSCAASGFTFSHYGMVWVRQPPGKGLEWVALISFDGTTKYYADSVKGRFTISRDNSKNTLYLQMNSLRAEDTAVYFCVGAIAAAAFDLWGRGTLVTVSS
VL: EIVMTQSPATLSVSPGERATLSCRASQSVSSDLAWYQQKPGQAPRLLIYSASARATGIPARFTGSGSGTDFTLTISSLQSEDFAVYYCQQYNNWPMYTFGQGTKLEIK
IC50, block of STAT5 reporter activation by 5 nM PRL in HEK293/hPRLR/STAT5-Luc cells [1]: 0.022 nM | binding result [2]: no binding

B2: H1H6953N-DM1 (antibody, human IgG1, V domains shown)
VH: EVQLLESGGGLVQPGGTLRLSCAASGFTFSAYAMSWVRQAPGKGLEWVSSINVRAGDTYYADSVKGRFTISRDNSKNTLFLLMNSLRAEDTAAYYCAKARYSSNWGFDFWGQGTLVTVSS
VL: DIVMTQSPDSLTVSLGARTTINCQSSQTILHSSNNHNYLAWYQQKPGLPPKLLIYWSSTRESGVPDRFSGSGSGTDFTLTISSLQAEDVAIYYCQQYSNTPYTFGQGTKLEIN
modifications: DM1 conjugated through SMCC linker; attachment residues not stated
% Kill, 293/PRLR cells [3]: 95% | % Kill, PC3/PRLR cells [3]: 67% | IC50, cell viability, 293/PRLR cells [3]: 0.28 nM | IC50, cell viability, PC3/PRLR cells [3]: 0.86 nM | % Kill, MCF7/PRLR cells [4]: 76% | % Kill, MCF7 cells [4]: 55% | % Kill, T47D cells [4]: 79% | IC50, cell viability, MCF7/PRLR cells [4]: 0.29 nM | IC50, cell viability, MCF7 cells [4]: 100 nM | IC50, cell viability, T47D cells [4]: 1.64 nM | IC50, cell viability, 293/PRLR cells (PRLR 18X) [5]: 0.43 nM | IC50, cell viability, PC3/PRLR cells (PRLR 13X) [6]: 0.68 nM | IC50, cell viability, MCF7 cells (PRLR 3X) [7]: 82 nM | IC50, cell viability, T47D cells (PRLR 12X) [7]: 1.3 nM | IC50, cell viability, T47D/ErbB2 cells (PRLR 12X) [7]: 2.4 nM | IC50, cell viability, MCF7/PRLR cells (PRLR 55X) [8]: 0.33 nM | IC50, cell viability, MCF/PRLR + ErbB2 cells (PRLR 55X) [8]: 0.33 nM | IC50, cell viability, NCI-N87/PRLR cells (PRLR 6X) [8]: 2.9 nM | % Kill, MCF7/ATCC cells [9]: 70% | % Kill, MCF7/PRLR cells [9]: 80% | % Kill, PC3/hPRLR cells [9]: 83% | IC50, cell viability, MCF7/ATCC cells [9]: 80 nM | IC50, cell viability, MCF7/PRLR cells [9]: 0.1 nM | IC50, cell viability, PC3/hPRLR cells [9]: 0.4 nM | % Kill, T47D cells [10]: 100% | IC50, cell viability, T47D cells [10]: 1.5 nM | % Kill, MCF7/ATCC cells [11]: 70% | % Kill, MCF7/PRLR cells [11]: 80% | IC50, cell viability, MCF7/ATCC cells [11]: 90 nM | IC50, cell viability, MCF7/PRLR cells [11]: 0.3 nM

B3: H1H6804P (antibody, human IgG1, V domains shown)
VH: QVTLKESGPVLVKPTQTLSLTCTVSGFSLSDAGMGVSWIRQPPGKALEWLAHIFSNDGKSYSTSLKSRLTISKDTSKRQVVLTMTNMDPVDTATYYCARIRTGTYSLYLDYWGQGTLVTVSS
VL: DIQMTQSPSSLSASVGDRVTITCRASQSINSYLNWYQQKPGKAPKLLLYFASSLQSGVPSRFSGSGSGTDFTLTISSLQPEDFASYYCQESYSTPWTFGQGTKVEIK
IC50, block of STAT5 reporter activation by 5 nM PRL in HEK293/hPRLR/STAT5-Luc cells [1]: 8 nM | binding result [2]: no binding

B4: H1H6958N2 (antibody, human IgG1, V domains shown)
VH: QVQLVESGGGVVQPGRSLRLSCGASGFTFRNYGMQWVRQGPGKGLEWVTLISFDGNDKYYADSVKGRFTISRDNSKNTLFLQMNSLRTEDTAVYYCARGGDFDYWGQGTLVTVSS
VL: DIQMTQSPSSLSASVGDRVTITCRASQDIRKDLGWYQQKPGKAPKRLIYAASSLHSGVPSRFSGSGSGTEFTLTISSLQPEDFATYYCLQHNSYPMYTFGQGTKLEIK
notes: Tested with human IgG1 Fc (H1H); also called HIH6958N2
IC50, block of PRL-induced STAT5-luciferase activity (2 nM PRL) [1]: 0.4 nM | binding result [2]: no binding | binding result [12]: binds | IC50 [13]: 5 nM | IC50 [14]: 5.8 nM

B5: H1H6958N2-DM1 (antibody, human IgG1, V domains shown)
VH: QVQLVESGGGVVQPGRSLRLSCGASGFTFRNYGMQWVRQGPGKGLEWVTLISFDGNDKYYADSVKGRFTISRDNSKNTLFLQMNSLRTEDTAVYYCARGGDFDYWGQGTLVTVSS
VL: DIQMTQSPSSLSASVGDRVTITCRASQDIRKDLGWYQQKPGKAPKRLIYAASSLHSGVPSRFSGSGSGTEFTLTISSLQPEDFATYYCLQHNSYPMYTFGQGTKLEIK
modifications: maytansinoid DM1 conjugated to the antibody through an SMCC linker; conjugation sites not stated
notes: also called H1H6958N2-SMCC-DM1; PRLR ADC
IC50, block of PRL-induced STAT5-luciferase activity (2 nM PRL) [1]: 0.4 nM | IC50 [15]: 4.4 nM | IC50 [16]: 4.2 nM
